In patent US20030203373A1 (priority 2002, published 2003):
Values belong to the binder of their own block, whether it stands above or below them.

How the values were obtained:
[1] = target: T1, angiotensin-converting-enzyme derived from pig kidney (pig) (UniProt F1RRW5); assay: cell-based or functional assay
T1 sequence (looked up): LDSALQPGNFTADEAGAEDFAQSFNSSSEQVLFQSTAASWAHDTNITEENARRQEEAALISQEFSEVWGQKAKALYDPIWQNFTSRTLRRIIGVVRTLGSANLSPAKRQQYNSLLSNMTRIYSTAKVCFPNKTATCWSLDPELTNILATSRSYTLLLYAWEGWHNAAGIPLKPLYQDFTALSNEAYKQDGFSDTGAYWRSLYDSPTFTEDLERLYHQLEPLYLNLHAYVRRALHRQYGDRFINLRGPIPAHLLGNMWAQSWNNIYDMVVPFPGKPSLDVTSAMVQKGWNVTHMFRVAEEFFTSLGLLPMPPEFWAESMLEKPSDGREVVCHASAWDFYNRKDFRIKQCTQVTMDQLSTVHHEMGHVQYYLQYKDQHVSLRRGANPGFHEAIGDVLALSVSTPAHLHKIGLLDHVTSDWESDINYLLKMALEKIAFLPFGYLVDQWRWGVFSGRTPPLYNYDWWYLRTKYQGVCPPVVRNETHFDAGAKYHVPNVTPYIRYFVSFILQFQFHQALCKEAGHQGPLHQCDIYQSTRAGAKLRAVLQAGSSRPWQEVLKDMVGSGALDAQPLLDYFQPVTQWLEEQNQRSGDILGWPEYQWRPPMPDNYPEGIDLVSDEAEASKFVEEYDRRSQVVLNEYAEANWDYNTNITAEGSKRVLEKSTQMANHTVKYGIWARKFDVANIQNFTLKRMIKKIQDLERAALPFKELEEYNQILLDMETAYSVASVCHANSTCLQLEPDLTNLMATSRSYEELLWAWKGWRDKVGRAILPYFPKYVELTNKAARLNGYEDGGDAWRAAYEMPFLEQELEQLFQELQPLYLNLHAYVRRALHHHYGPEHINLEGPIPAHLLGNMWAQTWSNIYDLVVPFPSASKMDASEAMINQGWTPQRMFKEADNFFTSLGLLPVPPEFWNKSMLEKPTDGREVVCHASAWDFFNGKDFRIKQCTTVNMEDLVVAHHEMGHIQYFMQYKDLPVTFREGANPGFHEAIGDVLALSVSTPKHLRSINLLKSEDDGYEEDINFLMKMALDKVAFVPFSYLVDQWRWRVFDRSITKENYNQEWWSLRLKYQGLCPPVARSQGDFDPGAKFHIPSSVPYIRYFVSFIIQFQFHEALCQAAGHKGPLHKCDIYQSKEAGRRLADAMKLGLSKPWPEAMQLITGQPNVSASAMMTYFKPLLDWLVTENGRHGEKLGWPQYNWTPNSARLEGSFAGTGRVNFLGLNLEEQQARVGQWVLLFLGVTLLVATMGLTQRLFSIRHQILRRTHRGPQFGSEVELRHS

[2] = target: T2, angiotensin-converting enzyme (ACE) from pig kidney (EC 3.4.15.1 (Sigma)) (pig) (UniProt F1RRW5); assay: cell-based or functional assay
T2 sequence (looked up): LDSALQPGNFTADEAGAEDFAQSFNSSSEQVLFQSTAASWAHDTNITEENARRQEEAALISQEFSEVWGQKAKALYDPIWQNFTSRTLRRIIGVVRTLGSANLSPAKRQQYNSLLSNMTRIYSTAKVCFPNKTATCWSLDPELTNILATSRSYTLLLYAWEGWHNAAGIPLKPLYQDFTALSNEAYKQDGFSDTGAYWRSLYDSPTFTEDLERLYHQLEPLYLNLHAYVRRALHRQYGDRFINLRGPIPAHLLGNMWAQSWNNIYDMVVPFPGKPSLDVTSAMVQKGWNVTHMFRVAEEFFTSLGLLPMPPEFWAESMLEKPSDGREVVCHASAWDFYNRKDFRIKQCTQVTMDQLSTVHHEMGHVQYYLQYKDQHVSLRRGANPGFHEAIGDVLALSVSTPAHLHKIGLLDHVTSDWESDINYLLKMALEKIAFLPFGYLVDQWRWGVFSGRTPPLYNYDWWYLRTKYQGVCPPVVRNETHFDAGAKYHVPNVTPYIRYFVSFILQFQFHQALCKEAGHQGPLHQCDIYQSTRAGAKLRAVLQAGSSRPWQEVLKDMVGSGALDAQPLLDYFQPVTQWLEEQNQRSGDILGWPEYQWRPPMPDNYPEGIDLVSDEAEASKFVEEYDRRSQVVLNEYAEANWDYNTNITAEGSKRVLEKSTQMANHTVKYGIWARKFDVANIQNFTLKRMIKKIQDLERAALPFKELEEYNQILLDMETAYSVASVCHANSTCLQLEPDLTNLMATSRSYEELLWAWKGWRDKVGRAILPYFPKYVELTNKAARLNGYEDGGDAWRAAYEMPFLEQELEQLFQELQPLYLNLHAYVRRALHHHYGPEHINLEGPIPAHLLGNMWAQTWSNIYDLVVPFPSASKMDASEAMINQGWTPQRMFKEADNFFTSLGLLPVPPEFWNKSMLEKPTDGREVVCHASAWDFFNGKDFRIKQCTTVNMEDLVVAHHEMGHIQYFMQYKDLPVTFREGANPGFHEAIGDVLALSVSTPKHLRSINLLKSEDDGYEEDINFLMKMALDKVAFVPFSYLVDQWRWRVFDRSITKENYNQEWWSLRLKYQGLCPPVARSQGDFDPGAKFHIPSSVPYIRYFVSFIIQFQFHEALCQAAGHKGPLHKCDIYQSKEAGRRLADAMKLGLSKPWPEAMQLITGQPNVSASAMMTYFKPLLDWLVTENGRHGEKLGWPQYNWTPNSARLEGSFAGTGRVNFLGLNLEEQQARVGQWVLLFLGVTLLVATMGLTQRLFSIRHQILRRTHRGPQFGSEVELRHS

IC50, ACE inhibition [1]: > 300 µM
Binder: QVLSEPNEEAGAALSPLPEVPP (N-terminal pyroglutamate) [S492]

% inhibition of ACE, 0.39 µM inhibitor, row A [2]: 9.98% | % inhibition of ACE, 0.39 µM inhibitor, row B [2]: 5.85% | % inhibition of ACE, 0.39 µM inhibitor, row C [2]: 4.63% | % inhibition of ACE, 0.39 µM inhibitor, row D [2]: -9.77% | % inhibition of ACE, 0.78125 µM inhibitor, row A [2]: 12.8% | % inhibition of ACE, 0.78125 µM inhibitor, row B [2]: 18.5% | % inhibition of ACE, 0.78125 µM inhibitor, row C [2]: 6.03% | % inhibition of ACE, 0.78125 µM inhibitor, row D [2]: 2.73% | % inhibition of ACE, 1.5625 µM inhibitor, row A [2]: 14.3% | % inhibition of ACE, 1.5625 µM inhibitor, row B [2]: 25.6% | % inhibition of ACE, 1.5625 µM inhibitor, row C [2]: 11.2% | % inhibition of ACE, 1.5625 µM inhibitor, row D [2]: 4.98% | % inhibition of ACE, 3.125 µM inhibitor, row A [2]: 20.4% | % inhibition of ACE, 3.125 µM inhibitor, row B [2]: 18.6% | % inhibition of ACE, 3.125 µM inhibitor, row C [2]: 16.3% | % inhibition of ACE, 3.125 µM inhibitor, row D [2]: 12.7% | % inhibition of ACE, 6.25 µM inhibitor, row A [2]: 30.6% | % inhibition of ACE, 6.25 µM inhibitor, row B [2]: 28.8% | % inhibition of ACE, 6.25 µM inhibitor, row C [2]: 25.2% | % inhibition of ACE, 6.25 µM inhibitor, row D [2]: 22.6% | % inhibition of ACE, 12.5 µM inhibitor, row A [2]: 36.8% | % inhibition of ACE, 12.5 µM inhibitor, row B [2]: 37.2% | % inhibition of ACE, 12.5 µM inhibitor, row C [2]: 35.7% | % inhibition of ACE, 12.5 µM inhibitor, row D [2]: 31.6% | % inhibition of ACE, 25 µM inhibitor, row A [2]: 55.7% | % inhibition of ACE, 25 µM inhibitor, row B [2]: 54.8% | % inhibition of ACE, 25 µM inhibitor, row C [2]: 56.7% | % inhibition of ACE, 25 µM inhibitor, row D [2]: 54.5% | % inhibition of ACE, 50 µM inhibitor, row A [2]: 69.5% | % inhibition of ACE, 50 µM inhibitor, row B [2]: 68.1% | % inhibition of ACE, 50 µM inhibitor, row C [2]: 64.2% | % inhibition of ACE, 50 µM inhibitor, row D [2]: 62.3% | % inhibition of ACE, 100 µM inhibitor, row A [2]: 81.8% | % inhibition of ACE, 100 µM inhibitor, row B [2]: 80.4% | % inhibition of ACE, 100 µM inhibitor, row C [2]: 78.9% | % inhibition of ACE, 100 µM inhibitor, row D [2]: 77.8% | % inhibition of ACE, 200 µM inhibitor, row A [2]: 89.3% | % inhibition of ACE, 200 µM inhibitor, row B [2]: 88.5% | % inhibition of ACE, 200 µM inhibitor, row C [2]: 88.4% | % inhibition of ACE, 200 µM inhibitor, row D [2]: 87.9% | fluorescence (ACE activity), 0.39 µM inhibitor, row A [2]: 813000 | fluorescence (ACE activity), 0.39 µM inhibitor, row B [2]: 850000 | fluorescence (ACE activity), 0.39 µM inhibitor, row C [2]: 861000 | fluorescence (ACE activity), 0.39 µM inhibitor, row D [2]: 990000 | fluorescence (ACE activity), 0.78125 µM inhibitor, row A [2]: 788000 | fluorescence (ACE activity), 0.78125 µM inhibitor, row B [2]: 737000 | fluorescence (ACE activity), 0.78125 µM inhibitor, row C [2]: 848000 | fluorescence (ACE activity), 0.78125 µM inhibitor, row D [2]: 878000 | fluorescence (ACE activity), 1.5625 µM inhibitor, row A [2]: 774000 | fluorescence (ACE activity), 1.5625 µM inhibitor, row B [2]: 673000 | fluorescence (ACE activity), 1.5625 µM inhibitor, row C [2]: 803000 | fluorescence (ACE activity), 1.5625 µM inhibitor, row D [2]: 858000 | fluorescence (ACE activity), 3.125 µM inhibitor, row A [2]: 720000 | fluorescence (ACE activity), 3.125 µM inhibitor, row B [2]: 736000 | fluorescence (ACE activity), 3.125 µM inhibitor, row C [2]: 756000 | fluorescence (ACE activity), 3.125 µM inhibitor, row D [2]: 789000 | fluorescence (ACE activity), 6.25 µM inhibitor, row A [2]: 628000 | fluorescence (ACE activity), 6.25 µM inhibitor, row B [2]: 644000 | fluorescence (ACE activity), 6.25 µM inhibitor, row C [2]: 676000 | fluorescence (ACE activity), 6.25 µM inhibitor, row D [2]: 699000 | fluorescence (ACE activity), 12.5 µM inhibitor, row A [2]: 573000 | fluorescence (ACE activity), 12.5 µM inhibitor, row B [2]: 668000 | fluorescence (ACE activity), 12.5 µM inhibitor, row C [2]: 583000 | fluorescence (ACE activity), 12.5 µM inhibitor, row D [2]: 619000 | fluorescence (ACE activity), 25 µM inhibitor, row A [2]: 402000 | fluorescence (ACE activity), 25 µM inhibitor, row B [2]: 411000 | fluorescence (ACE activity), 25 µM inhibitor, row C [2]: 394000 | fluorescence (ACE activity), 25 µM inhibitor, row D [2]: 413000 | fluorescence (ACE activity), 50 µM inhibitor, row A [2]: 278000 | fluorescence (ACE activity), 50 µM inhibitor, row B [2]: 292000 | fluorescence (ACE activity), 50 µM inhibitor, row C [2]: 326000 | fluorescence (ACE activity), 50 µM inhibitor, row D [2]: 343000 | fluorescence (ACE activity), 100 µM inhibitor, row A [2]: 168000 | fluorescence (ACE activity), 100 µM inhibitor, row B [2]: 181000 | fluorescence (ACE activity), 100 µM inhibitor, row C [2]: 194000 | fluorescence (ACE activity), 100 µM inhibitor, row D [2]: 204000 | fluorescence (ACE activity), 200 µM inhibitor, row A [2]: 101000 | fluorescence (ACE activity), 200 µM inhibitor, row B [2]: 108000 | fluorescence (ACE activity), 200 µM inhibitor, row C [2]: 109000 | fluorescence (ACE activity), 200 µM inhibitor, row D [2]: 114000
Binder: PLPEVPP [Peptid S548 (PLPEVPP)]
